Reference: the supplement of paper PMC9112550, “Optimization of the antimicrobial peptide Bac7 by deep mutational scanning” (BMC Biology, 2022)
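Further: peptides expressed intracellularly from a pBAD plasmid library in pooled LB shake-flask culture, induced with 0.3% L-arabinose, DNA abundance read by NGS, three biological replicates, DESeq2 with apeglm shrinkage.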

What follows are sequences tested on Escherichia coli TOP10 (assay: shrunken log2 fold change of peptide-encoding DNA abundance (4.5 h post-induction vs induction); higher = less antimicrobial activity (less host growth inhibition)). Details: time post-induction: 4.5 h; library: site-saturation at positions 5, 18, 19, 20.
RRIRMRPPRLPRPRPRPGCEPRP was tested, and the “shrunken log2 fold change” value was 1.87.
For RRIRCRPPRLPRPRPRPSMVPRP, the “shrunken log2 fold change” value was -0.312.
With RRIRKRPPRLPRPRPRPAFMPRP the “shrunken log2 fold change” value was 0.341.
With RRIRMRPPRLPRPRPRPPVYPRP the “shrunken log2 fold change” value was 0.167.
In the case of RRIRTRPPRLPRPRPRPEHCPRP, the “shrunken log2 fold change” value is reported as -0.0755.
RRIRYRPPRLPRPRPRPCYMPRP was tested, and the “shrunken log2 fold change” value was 0.0232.
RRIRLRPPRLPRPRPRPRFYPRP was tested, and the “shrunken log2 fold change” value was 0.074.
In the case of RRIRRRPPRLPRPRPRPLKIPRP, the “shrunken log2 fold change” value is reported as -0.0377.
With RRIRTRPPRLPRPRPRPQSAPRP the “shrunken log2 fold change” value was -0.0745.
With RRIRGRPPRLPRPRPRPVTDPRP the “shrunken log2 fold change” value was 0.394.
For RRIRSRPPRLPRPRPRPWKYPRP, the “shrunken log2 fold change” value was 0.0245.
In the case of RRIRARPPRLPRPRPRPFVEPRP, the “shrunken log2 fold change” value is reported as 0.108.
For RRIRYRPPRLPRPRPRPHMCPRP, the “shrunken log2 fold change” value was -0.0704.
In the case of RRIRVRPPRLPRPRPRPVFHPRP, the “shrunken log2 fold change” value is reported as -0.213.
For RRIRKRPPRLPRPRPRPCFVPRP, the “shrunken log2 fold change” value was -0.0847.
For RRIRWRPPRLPRPRPRPMMSPRP, the “shrunken log2 fold change” value was 0.19.
For RRIRKRPPRLPRPRPRPNCSPRP, the “shrunken log2 fold change” value was 0.149.
RRIRERPPRLPRPRPRPWYPPRP was tested, and the “shrunken log2 fold change” value was -0.224.
For RRIRFRPPRLPRPRPRPEFLPRP, the “shrunken log2 fold change” value was 0.0354.
For RRIRTRPPRLPRPRPRPAIIPRP, the “shrunken log2 fold change” value was -0.233.
For RRIRRRPPRLPRPRPRPVPCPRP, the “shrunken log2 fold change” value was 0.0337.
For RRIRFRPPRLPRPRPRPISQPRP, the “shrunken log2 fold change” value was -0.588.
RRIRKRPPRLPRPRPRPKFDPRP was tested, and the “shrunken log2 fold change” value was -0.146.
For RRIRARPPRLPRPRPRPISTPRP, the “shrunken log2 fold change” value was -0.295.
For RRIRARPPRLPRPRPRPMSWPRP, the “shrunken log2 fold change” value was 0.399.
With RRIRCRPPRLPRPRPRPFLHPRP the “shrunken log2 fold change” value was -0.703.
With RRIRKRPPRLPRPRPRPWQKPRP the “shrunken log2 fold change” value was 0.121.
In the case of RRIRWRPPRLPRPRPRPHYAPRP, the “shrunken log2 fold change” value is reported as -0.0597.
For RRIRHRPPRLPRPRPRPDPFPRP, the “shrunken log2 fold change” value was -0.409.
RRIRPRPPRLPRPRPRPTNVPRP was tested, and the “shrunken log2 fold change” value was -0.0325.
RRIRNRPPRLPRPRPRPFPTPRP was tested, and the “shrunken log2 fold change” value was 0.00541.
For RRIRARPPRLPRPRPRPHRFPRP, the “shrunken log2 fold change” value was -0.176.
RRIRCRPPRLPRPRPRPERCPRP was tested, and the “shrunken log2 fold change” value was 0.302.
In the case of RRIRYRPPRLPRPRPRPMRGPRP, the “shrunken log2 fold change” value is reported as 0.156.
For RRIRDRPPRLPRPRPRPVIWPRP, the “shrunken log2 fold change” value was 0.0861.
For RRIRLRPPRLPRPRPRPEGPPRP, the “shrunken log2 fold change” value was 0.539.
RRIRWRPPRLPRPRPRPPDSPRP was tested, and the “shrunken log2 fold change” value was 0.0564.
RRIRKRPPRLPRPRPRPYQFPRP was tested, and the “shrunken log2 fold change” value was -0.17.
In the case of RRIRLRPPRLPRPRPRPDTEPRP, the “shrunken log2 fold change” value is reported as -0.0195.
For RRIRLRPPRLPRPRPRPCEAPRP, the “shrunken log2 fold change” value was 0.125.
In the case of RRIRSRPPRLPRPRPRPHIGPRP, the “shrunken log2 fold change” value is reported as -0.0154.
For RRIRCRPPRLPRPRPRPHDVPRP, the “shrunken log2 fold change” value was -0.314.
For RRIRKRPPRLPRPRPRPMPDPRP, the “shrunken log2 fold change” value was 0.525.
In the case of RRIRTRPPRLPRPRPRPHQVPRP, the “shrunken log2 fold change” value is reported as -0.0174.
With RRIRNRPPRLPRPRPRPNRFPRP the “shrunken log2 fold change” value was 0.0252.
In the case of RRIRLRPPRLPRPRPRPGTVPRP, the “shrunken log2 fold change” value is reported as -0.0516.
With RRIRERPPRLPRPRPRPWLPPRP the “shrunken log2 fold change” value was -0.0302.
For RRIRKRPPRLPRPRPRPDSMPRP, the “shrunken log2 fold change” value was 0.0692.
With RRIRQRPPRLPRPRPRPCITPRP the “shrunken log2 fold change” value was -0.167.
RRIRCRPPRLPRPRPRPKEQPRP was tested, and the “shrunken log2 fold change” value was 0.0429.
For RRIRERPPRLPRPRPRPPMVPRP, the “shrunken log2 fold change” value was -0.45.
RRIRERPPRLPRPRPRPVQSPRP was tested, and the “shrunken log2 fold change” value was -0.015.
With RRIRYRPPRLPRPRPRPAMRPRP the “shrunken log2 fold change” value was 0.372.
RRIRSRPPRLPRPRPRPFLPPRP was tested, and the “shrunken log2 fold change” value was -0.305.
For RRIRQRPPRLPRPRPRPDGCPRP, the “shrunken log2 fold change” value was -0.103.
With RRIRKRPPRLPRPRPRPCDWPRP the “shrunken log2 fold change” value was -0.0282.
With RRIRERPPRLPRPRPRPVFMPRP the “shrunken log2 fold change” value was -0.356.
For RRIRGRPPRLPRPRPRPLMRPRP, the “shrunken log2 fold change” value was 1.61.
With RRIRFRPPRLPRPRPRPLIDPRP the “shrunken log2 fold change” value was -0.227.
In the case of RRIRMRPPRLPRPRPRPLMDPRP, the “shrunken log2 fold change” value is reported as 1.24.
For RRIRKRPPRLPRPRPRPKDEPRP, the “shrunken log2 fold change” value was 0.0833.
With RRIRWRPPRLPRPRPRPISEPRP the “shrunken log2 fold change” value was 0.00628.
In the case of RRIRIRPPRLPRPRPRPTRYPRP, the “shrunken log2 fold change” value is reported as -0.328.
With RRIRIRPPRLPRPRPRPMQPPRP the “shrunken log2 fold change” value was -0.0593.
In the case of RRIRFRPPRLPRPRPRPMGQPRP, the “shrunken log2 fold change” value is reported as -0.0471.
In the case of RRIRMRPPRLPRPRPRPFSIPRP, the “shrunken log2 fold change” value is reported as -0.11.
With RRIRVRPPRLPRPRPRPQIGPRP the “shrunken log2 fold change” value was -0.273.
In the case of RRIRPRPPRLPRPRPRPMPHPRP, the “shrunken log2 fold change” value is reported as -0.169.
RRIRERPPRLPRPRPRPKIWPRP was tested, and the “shrunken log2 fold change” value was 0.0407.
In the case of RRIRNRPPRLPRPRPRPESRPRP, the “shrunken log2 fold change” value is reported as 0.114.
For RRIRRRPPRLPRPRPRPKLIPRP, the “shrunken log2 fold change” value was -0.395.
RRIRWRPPRLPRPRPRPDYTPRP was tested, and the “shrunken log2 fold change” value was -0.0601.
RRIRNRPPRLPRPRPRPCQYPRP was tested, and the “shrunken log2 fold change” value was -0.0135.
In the case of RRIRHRPPRLPRPRPRPMQYPRP, the “shrunken log2 fold change” value is reported as -0.104.
With RRIRIRPPRLPRPRPRPDKLPRP the “shrunken log2 fold change” value was -0.275.
